{
  "source": "paper PMC11479942",
  "about": "“XPD stalled on cross-linked DNA provides insight into damage verification”",
  "molecules": {"B1": {"name": "5' overhang self-annealing hairpin (structured_DNA)", "DNA": "TTTTTTTTTTTTTTTCCCGGCCATGCGAAGCATGGCCGTT"}},
  "key": {"[1]": {"target": "super-unplugged XPD variant (Chaetomium thermophilum)"}, "XPD wild type (ctXPD)": {"target": "T1, XPD wild type (ctXPD) (Chaetomium thermophilum (paper: C. …, UniProt G0RZH0 1-780))", "T1 sequence": "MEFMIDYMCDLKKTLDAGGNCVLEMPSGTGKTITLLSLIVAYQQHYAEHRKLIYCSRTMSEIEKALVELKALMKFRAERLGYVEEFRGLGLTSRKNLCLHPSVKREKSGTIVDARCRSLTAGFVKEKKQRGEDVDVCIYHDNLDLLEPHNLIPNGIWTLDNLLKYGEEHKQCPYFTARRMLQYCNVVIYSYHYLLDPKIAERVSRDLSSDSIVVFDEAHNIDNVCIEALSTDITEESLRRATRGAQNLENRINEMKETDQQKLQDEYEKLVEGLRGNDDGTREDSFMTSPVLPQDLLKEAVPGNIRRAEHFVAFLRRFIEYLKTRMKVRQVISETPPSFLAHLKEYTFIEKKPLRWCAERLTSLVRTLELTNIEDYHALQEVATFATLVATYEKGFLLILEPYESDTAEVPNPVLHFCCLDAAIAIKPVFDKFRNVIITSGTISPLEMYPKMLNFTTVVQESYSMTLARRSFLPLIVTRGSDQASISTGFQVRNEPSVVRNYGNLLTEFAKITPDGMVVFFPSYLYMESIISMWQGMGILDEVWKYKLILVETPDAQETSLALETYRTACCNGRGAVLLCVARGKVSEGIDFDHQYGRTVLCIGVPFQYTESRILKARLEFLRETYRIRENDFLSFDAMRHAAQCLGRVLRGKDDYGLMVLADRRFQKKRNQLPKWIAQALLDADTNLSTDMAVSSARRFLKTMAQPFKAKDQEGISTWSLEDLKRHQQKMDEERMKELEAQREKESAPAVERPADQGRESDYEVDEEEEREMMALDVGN", "test": "fluorescence anisotropy; 5 mM MgCl2, no nucleotide; Fluorescence anisotropy: 20 mM HEPES pH 7.5, 50 mM KCl, 5 mM MgCl2, 1 mM TCEP, 5 nM DNA, room temperature; cryo-EM: same buffer, 10 uM complex, DNA 1.25:1, 5 mM ATP", "conditions": "protein: recombinant; tags: N-terminal 6xHis, TEV site (pBADM-11); label: 5' Cy3; hairpin with 5' overhang"}},
  "data": [
    {"molecule": "XPG D924A from Chaetomium thermophilum (enzyme)", "values": [
      {"measurement": "XPD helicase activity (fluorescence-based, Y-forked DNA 250 nM, XPD–p44 250 nM) with equimolar XPG D924A (250 nM); inhibition by XPG D924A", "setting": "[1]", "result": 6, "unit": "fold"}
    ]},
    {"molecule": "B1", "values": [
      {"measurement": "Kd", "setting": "XPD wild type (ctXPD)", "result": 30, "unit": "nM"}
    ]}
  ]
}
